These results are taken from patent publication US20250019652A1, “PRODUCTION METHOD FOR SHEET-LIKE RETINAL TISSUE” (RIKEN, priority 2021, published 2025).

Common to all, as to assay type: cell-based, human
The subject of assay [1] is Rx::Venus-sorted cells (KhES-1-derived NR, Day 25). The assay is described as follows: Search of factor that maintains property of retina at preparation into sheet again (Example 18). Also noted: expression intensity of Rx::Venus, concentration dependency: dose or concentration left out as unconfirmed. The settings on record: for expression intensity of Rx::Venus: compared with PBS control, 10 days after seeding. The protocol:
The aggregates (NR) of Day 25 from initiation of the suspension culture prepared in Example 1 were washed with PBS, and a neuronal cell dispersion solution (manufactured by FUJIFILM Wako Pure Chemical Corp.) was added. After incubation at 37° C., they were dispersed into single cells by pipetting, and sorting was carried out with Rx::Venus as an index using Cell sorter ARIAII (Becton, Dickinson and Company).
3 days after seeding, the medium was similarly replaced so as to maintain the concentrations of the low-molecular compounds or the proteins described in Tables 1 and 2. […] 10 days after seeding, fixation was performed in 4% PFA, and the evaluation of the cells after sorting was conducted with Rx::Venus as an index under a fluorescence microscope (BZ-X810 manufactured by Keyence Corp.).

Assay [2] has as its system KhES-1 Rx::Venus aggregates. The experiment in a line: Differentiation with or without BMP4: retinal tissue versus brain organoid (Example 23). Particulars: group supplemented with BMP4. The method, then:
Human ES cells (KhES-1 strain (Non Patent Literature 3)) genetically engineered so as to have Rx::Venus reporter gene were cultured under feeder-free conditions in accordance with the method described in “Scientific Reports 4, 3594 (2014)”. As a feeder-free medium, StemFit medium (trade name: AK03N, manufactured by Ajinomoto Co., Inc.) was used, and as a scaffold in place of feeder cells, Laminin511-E8 (trade name, manufactured by Nippi, Inc.) was used. 300 nM SAG was added at the start of suspension culture (at the start of differentiation), and brain organoid was prepared on Day 3 from initiation of the suspension culture without adding BMP4. As a control, a group supplemented with BMP4 was established. Fluorescence microscope observation was performed as to the brain organoid of Day 26 from initiation of the suspension culture prepared in this way (FIG. 70). […] Further, these aggregates were fixed in 4% PFA. Sections were prepared and stained with DAPI and anti-FoxG1 antibody (Takara Bio Inc.), and observation was performed under a fluorescence microscope (BZ-X810 manufactured by Keyence Corp.). […] On the other hand, in the group that was not supplemented with BMP4, FoxG1 positive was confirmed, and it was confirmed that brain organoid was differentiated (FIG. 71).

In assay [3] the test system is Rx::Venus-sorted NR cells on Transwell (KhES-1-derived). The experiment in a line: Effect of FGF8 at preparation into sheet again, microscopy and FACS (Example 20). The method, then:
The aggregates (NR) of Day 24 from initiation of the suspension culture prepared in Example 1 were washed with PBS, and a neuronal cell dispersion solution (manufactured by FUJIFILM Wako Pure Chemical Corp.) was added. After incubation at 37° C., they were dispersed into single cells by pipetting, and sorting was carried out with Rx::Venus as an index using Cell sorter ARIAII (Becton, Dickinson and Company). […] As a control, a group that was not supplemented with FGF8 (FGF8−) was also established.
Medium replacement was carried out once every 3 to 4 days. FGF8 was also added at the time of medium replacement. Sheets after a lapse of differentiation for 63 days and 40 days after reseeding were observed under a fluorescence stereo microscope (FIGS. 60 and 61). For FACS analysis, the aggregates of Differentiation Day 64 and Day 41 after reseeding were washed with PBS and dispersed into single cells using a neuronal cell dispersion solution (manufactured by FUJIFILM Wako Pure Chemical Corp.). Then, formaldehyde fixation was performed using Fixation buffer (Becton, Dickinson and Company).
Thereafter, after fixation using Fixation buffer (Becton, Dickinson and Company) and washing with Perm/Wash buffer (Becton, Dickinson and Company), staining was performed with anti-CHX10-Alexa Fluor 647 conjugate antibody (Santa Cruz Biotechnology), anti-Sox2-BV421 conjugate antibody (BioLegend, Inc.), anti-Ki67 antibody (Becton, Dickinson and Company), and anti-CRX-Alexa Fluor 647 conjugate antibody (Santa Cruz Biotechnology). After washing of the antibodies with Perm/Wash buffer (Becton, Dickinson and Company), measurement was performed using FACSCantoII (BD Biosciences), and analysis was conducted using FlowJo. As a control, neural retinal tissue having the same number of differentiation days that was not reorganized was also established (FIG. 62).

The test system of assay [4] is sorted or unsorted dispersed NR cells (KhES-1 Rx::Venus). The experiment in a line: Aggregate reforming by addition of FGF8 and retinal differentiation, microscopy and FACS (Example 19). The protocol: The aggregates (NR) of Day 24 from initiation of the suspension culture prepared in Example 1 were washed with PBS, and a neuronal cell dispersion solution (manufactured by FUJIFILM Wako Pure Chemical Corp.) was added. After incubation at 37° C., they were dispersed into single cells by pipetting, and sorting was carried out with Rx::Venus as an index using Cell sorter ARIAII (Becton, Dickinson and Company). The cells after sorting were seeded at 2.0 to 5.0×10^4 cells per well to a low adhesive V plate. As controls, a group that was not supplemented with FGF8 (FGF8−) and a group that was not sorted (unsorted) were also established.
Medium replacement was carried out once every 3 to 4 days. FGF8 was also added at the time of medium replacement. […] RPE cells were partially observed in the sorted FGF8− group.
Further, the aggregates of Culture Day 54 for aggregate reforming (Day 30 after reseeding) were washed with PBS and dispersed into single cells using a neuronal cell dispersion solution (manufactured by FUJIFILM Wako Pure Chemical Corp.). Then, formaldehyde fixation was performed using Fixation buffer (Becton, Dickinson and Company). Thereafter, after washing with Perm/Wash buffer (Becton, Dickinson and Company), staining was performed with anti-CHX10-Alexa Fluor 647 conjugate antibody (Santa Cruz Biotechnology), anti-Sox2-BV421 antibody (BioLegend, Inc.), anti-Ki67-Alexa Fluor 647 conjugate antibody (Becton, Dickinson and Company), and anti-CRX-Alexa Fluor 647 conjugate antibody (Santa Cruz Biotechnology). After washing of the antibodies with Perm/Wash buffer (Becton, Dickinson and Company), measurement was performed using FACSCantoII (BD Biosciences), and analysis was conducted using FlowJo. As a control, neural retinal tissue having the same number of differentiation days that was not reorganized was also established.

Assay [5] deals with CD39-sorted cells of Islet-1 KO KhES-1-derived aggregates (NR). The assay is described as follows: Islet-1 KO hESC-retina sheet prepared by sorting with CD39 and addition of FGF8 (Example 26). The settings on record: 50 ng/mL FGF8; Day 73. The protocol:
For aggregates differentiated with 300 nM SAG at the start of suspension culture (at the start of differentiation, dd0), the aggregates (NR) of Day 25 from initiation of the suspension culture were dispersed into single cells and stained at 37° C. for 15 minutes using anti-CD39-APC conjugate antibody (Miltenyi Biotec). Then, sorting was carried out with CD39-APC as an index using Cell sorter ARIAII (Becton, Dickinson and Company). The cells after sorting were seeded at 8.0×10^5 cells per well into 12-well Transwell coated with collagen gel. […] As a control, a group that was not supplemented with FGF8 (FGF8−) was also established.
Medium replacement was carried out once every 3 to 4 days. FGF8 was also added at the time of medium replacement.

[6] abbreviates: versus neural retinal tissue not reorganized.
Where [7] appears, read: sorted group supplemented with FGF8.

B1: FGF4: fibroblast growth factor, FGF signaling pathway agonist (protein, UniProt P08620 31-206, looked up)
Fibroblast growth factor 4: APTAPNGTLEAELERRWESLVALSLARLPVAAQPKEAAVQSGAGDYLLGIKRLRRLYCNVGIGFHLQALPDGRIGGAHADTRDSLLELSPVERGVVSIFGVASRFFVAMSSKGKLYGSPFFTDECTFKEILLPNNYNAYESYKYPGMFIALSKNGKTKKGNRVSPTMKVTHFLPRL
As to B1, the “expression intensity of Rx::Venus” value in assay [1] was “high expression intensity of Rx::Venus”.

B2: BMP4: exogenous human recombinant BMP4, BMP signaling pathway agonist (protein, UniProt P12644 293-408, looked up)
Bone morphogenetic protein 4: SPKHHSQRARKKNKNCRRHSLYVDFSDVGWNDWIVAPPGYQAFYCHGDCPFPLADHLNSTNHAIVQTLVNSVNSSIPKACCVPTELSAISMLYLDEYDKVVLKNYQEMVVEGCGCR
As for B2, the FoxG1 staining result in assay [2] is reported as “FoxG1 was negative”. Besides, in assay [2] (Day 26), the “differentiated tissue (Rx::Venus)” value is reported as “Rx::Venus-positive retinal tissue was observed to be differentiated”.

B3: FGF8: fibroblast growth factor, FGF signaling pathway agonist (protein, UniProt P55075 23-233, looked up)
Fibroblast growth factor 8: QEGPGRGPALGRELASLFRAGREPQGVSQQHVREQSLVTDQLSRRLIRTYQLYSRTSGKHVQVLANKRINAMAEDGDPFAKLIVETDTFGSRVRVRGAETGLYICMNKKGKLIAKSNGKGKDCVFTEIVLENNYTALQNAKYEGWYMAFTRKGRPRKGSKTRQHQREVHFMKRLPRGHHTTEQSLRFEFLNYPPFTRSLRGSQRTWAPEPR
In the case of B3, the “expression intensity of Rx::Venus, concentration dependency” value in assay [1] (FGF8) is “the highest expression intensity of Rx::Venus”. In addition, the “expression intensity of Rx::Venus” value in assay [1] is given as “high expression intensity of Rx::Venus”. Moreover, the “Rx::Venus positive rate (FACS)” value in assay [3] (group supplemented with FGF8, Day 41 after reseeding) was at least 95%. For the same molecule, in assay [3] (sheets supplemented with FGF8), the “black RPE in sheet” value is reported as “hardly observed”. In assay [3] (sorted then supplemented with FGF8, 40 days after reseeding), the “distribution of Rx::Venus-positive cells in sheet” value is “Rx::Venus-positive cells were uniformly present in the whole wells”. Further, in assay [3] (setting [6]), the “percentage of Chx10-positive and Sox2-positive neural retinal progenitor cells or Crx-positive photoreceptor progenitor cells” value is “equivalent as compared with neural retinal tissue”; the “percentage of Rx::Venus-positive and Ki67-positive proliferative retinal cells” value was “tended to be large as compared with neural retinal tissue”. Besides, in assay [4] (setting [7]), the “percentage of Chx10-positive and Sox2-positive neural retinal progenitor cells” value was “high”; the “percentage of Crx-positive photoreceptor progenitor cells” value is reported as “tended to be low”. In assay [4] (sorted, FGF8+, Day 10 after reseeding), the “RPE cells or Rx::Venus-negative masses” value is reported as “RPE cells or Rx::Venus-negative masses were not observed”. The “Rx::Venus positive rate (FACS)” value in assay [4] (unsorted group supplemented with FGF8, Day 30 after reseeding) was “the Rx::Venus positive rate tended to be high”. The “Rx::Venus-negative cell masses or RPE cells” value in assay [4] (unsorted, FGF8+, Day 10 after reseeding) is “these cell masses were observed to decrease”. For the same molecule, the “distribution of Crx::Venus cell populations in sheet” value in assay [5] was “uniformly present”.
